# Test results as given in the Immune Epitope Database (IEDB).
# Columns and labels:
# HLA-B*51:01 [1] = assay: IEDB peptide-MHC binding, purified MHC/direct/fluorescence; filed as Kd, often an IC50 or EC50 that approximates it; ≥ and ≤ were set here for values at or beyond the usual limits of such assays
# HLA-B*07:02 [2] = assay: as above
# HLA-B*15:09 = assay: as above
# HLA-B*39:01 [3] = assay: IEDB peptide-MHC binding, purified MHC/competitive/fluorescence; filed as Kd, often an IC50 or EC50 that approximates it; ≥ and ≤ were set here for values at or beyond the usual limits of such assays
# HLA-A*69:01 = assay: IEDB peptide-MHC binding, purified MHC/direct/fluorescence; filed as Kd, often an IC50 or EC50 that approximates it; ≥ and ≤ were set here for values at or beyond the usual limits of such assays
# HLA-A*11:01 = assay: as above
# HLA-B*48:01 = assay: as above
# HLA-B*58:01 = assay: as above
# HLA-A*01:01 = assay: as above
# HLA-A*02:01 [4] = assay: as above
# HLA-A*03:01 [5] = assay: as above
# HLA-B*27:05 = assay: as above
# HLA-B*15:01 [6] = assay: as above
# HLA-B*46:01 = assay: as above
# HLA-B*40:01 = assay: as above
# HLA-B*18:01 = assay: as above
# HLA-B*15:17 [7] = assay: as above; conditions: source organism: Influenza A virus (A/duck/Hokkaido/1130/01(H1N1))
# HLA-B*57:01 = assay: as above
# HLA-A*02:03 = assay: IEDB peptide-MHC binding, purified MHC/competitive/fluorescence; filed as Kd, often an IC50 or EC50 that approximates it; ≥ and ≤ were set here for values at or beyond the usual limits of such assays; conditions: source organism: Influenza A virus (A/81/HO)
# HLA-A*31:01 [8] = assay: as above
# HLA-B*39:01 [9] = assay: IEDB peptide-MHC binding, purified MHC/direct/fluorescence; filed as Kd, often an IC50 or EC50 that approximates it; ≥ and ≤ were set here for values at or beyond the usual limits of such assays
# HLA-A*02:11 = assay: as above; conditions: source organism: Rickettsia prowazekii
# HLA-A*02:19 = assay: as above; conditions: source organism: Rickettsia prowazekii
# HLA-A*03:01 [10] = assay: IEDB peptide-MHC binding, purified MHC/competitive/fluorescence; filed as Kd, often an IC50 or EC50 that approximates it; ≥ and ≤ were set here for values at or beyond the usual limits of such assays
# HLA-A*24:02 = assay: IEDB peptide-MHC binding, purified MHC/competitive/fluorescence; ≥ and ≤ were set here for values at or beyond the usual limits of such assays; conditions: source organism: Zaire ebolavirus
# HLA-B*15:01 [11] = assay: as above; conditions: source organism: Zaire ebolavirus
# HLA-B*07:02 [12] = assay: as above
# HLA-B*08:01 [13] = assay: IEDB peptide-MHC binding, purified MHC/competitive/radioactivity; filed as Kd, often an IC50 or EC50 that approximates it; ≥ and ≤ were set here for values at or beyond the usual limits of such assays; conditions: source organism: Dengue virus 4 Philippines/H241/1956
# HLA-B*15:01 [14] = assay: IEDB peptide-MHC binding, purified MHC/competitive/fluorescence; filed as Kd, often an IC50 or EC50 that approximates it; ≥ and ≤ were set here for values at or beyond the usual limits of such assays; conditions: source organism: Salmonella enterica subsp. enterica serovar Typhi
# HLA-A*29:02 = assay: IEDB peptide-MHC binding, purified MHC/direct/fluorescence; filed as Kd, often an IC50 or EC50 that approximates it; ≥ and ≤ were set here for values at or beyond the usual limits of such assays
# HLA-B*44:02 = assay: as above
# HLA-A*31:01 [15] = assay: as above
# HLA-A*02:01 [16] = assay: IEDB peptide-MHC binding, purified MHC/competitive/fluorescence; ≥ and ≤ were set here for values at or beyond the usual limits of such assays; conditions: source organism: Zaire ebolavirus
# HLA-A*68:02 = assay: IEDB peptide-MHC binding, purified MHC/direct/fluorescence; filed as Kd, often an IC50 or EC50 that approximates it; ≥ and ≤ were set here for values at or beyond the usual limits of such assays; conditions: source organism: Convict Creek 107 virus
# HLA-B*08:01 [17] = assay: as above; conditions: source organism: Orthohantavirus andesense
# HLA-A*24:03 = assay: as above; conditions: source organism: Convict Creek 107 virus
# HLA-B*51:01 [18] = assay: IEDB peptide-MHC binding, purified MHC/competitive/fluorescence; filed as Kd, often an IC50 or EC50 that approximates it; ≥ and ≤ were set here for values at or beyond the usual limits of such assays; conditions: source organism: Orthohantavirus sinnombreense
# HLA-A*26:01 = assay: as above; conditions: source organism: Orthohantavirus sinnombreense
# HLA-B*27:03 = assay: as above; conditions: source organism: Orthohantavirus sinnombreense
# HLA-B*15:17 [19] = assay: as above; conditions: source organism: Orthohantavirus sinnombreense
# [20] = source organism: Giardia lamblia ATCC 50803
# [21] = source organism: Influenza A virus (A/duck/Hokkaido/1130/01(H1N1))
# [22] = source organism: Vibrio parahaemolyticus AQ3810
# [23] = source organism: Rickettsia prowazekii
# [24] = source organism: Escherichia coli O139:H28 str. E24377A
# [25] = source organism: Bacillus anthracis
# [26] = source organism: Zaire ebolavirus
# [27] = source organism: Salmonella enterica subsp. enterica serovar Typhi
# [28] = source organism: Mycolicibacterium gilvum
# [29] = source organism: Shigella boydii
# [30] = source organism: Mammarenavirus lassaense
# [31] = source organism: Orthohantavirus andesense
sequence,measurement,setting,value
AVSRGTAKL,Kd,HLA-B*51:01 [1]; source organism: Alkhumra hemorrhagic fever virus,≥ 20 µM
EALAMCLPY,Kd,HLA-B*51:01 [1]; [20],≥ 20 µM
same,Kd,HLA-B*07:02 [2]; [20],5.2 µM
EHFLGIWGL,Kd,HLA-B*15:09; source organism: Bacillus cereus H3081.97,0.094 µM
same,Kd,HLA-B*39:01 [3]; source organism: Bacillus thuringiensis str. Al Hakam,0.0179 µM
ELRSRYWAI,Kd,HLA-A*69:01; [21],0.151 µM
same,Kd,HLA-A*11:01; [21],≥ 20 µM
same,Kd,HLA-B*48:01; [21],≥ 20 µM
same,Kd,HLA-B*58:01; [21],≥ 20 µM
same,Kd,HLA-A*01:01; [21],≥ 20 µM
same,Kd,HLA-A*02:01 [4]; [21],≥ 20 µM
same,Kd,HLA-B*51:01 [1]; [21],≥ 20 µM
same,Kd,HLA-A*03:01 [5]; [21],≥ 20 µM
same,Kd,HLA-B*27:05; [21],≥ 20 µM
same,Kd,HLA-B*15:01 [6]; [21],≥ 20 µM
same,Kd,HLA-B*46:01; [21],≥ 20 µM
same,Kd,HLA-B*07:02 [2]; [21],≥ 20 µM
same,Kd,HLA-B*40:01; [21],≥ 20 µM
same,Kd,HLA-B*18:01; [21],2.45 µM
same,Kd,HLA-B*15:17 [7],≥ 20 µM
same,Kd,HLA-B*57:01; [21],≥ 20 µM
same,Kd,HLA-A*02:03,≥ 20 µM
same,Kd,HLA-A*31:01 [8]; source organism: Influenza A virus (A/81/HO),≥ 20 µM
EQYGPRHTL,Kd,HLA-B*39:01 [9]; [22],0.004 µM
same,Kd,HLA-B*15:09; [22],0.18 µM
FGSGWTWVV,Kd,HLA-A*69:01; [23],1.18 µM
same,Kd,HLA-A*02:11,≤ 0.001 µM
same,Kd,HLA-A*02:01 [4]; [23],0.669 µM
same,Kd,HLA-A*02:19,≤ 0.001 µM
FHGAKEIAL,Kd,HLA-B*39:01 [9]; source organism: Influenza A virus H3N2,0.175 µM
GINWKHPKR,Kd,HLA-A*03:01 [10]; [24],1.57 µM
same,Kd,HLA-A*31:01 [8]; [24],0.199 µM
GTGAGVPSK,Kd,HLA-A*11:01; [25],0.0113 µM
same,Kd,HLA-A*03:01 [5]; [25],1.14 µM
same,Kd,HLA-A*31:01 [8]; source organism: Bacillus anthracis str. A0488,0.644 µM
KIRSEELSF,IC50,HLA-A*24:02,≥ 106 µM
same,IC50,HLA-B*15:01 [11],≥ 91.7 µM
same,IC50,HLA-B*07:02 [12]; [26],≥ 173 µM
MPVMKRYSA,Kd,HLA-B*51:01 [1]; source organism: dengue virus type 4,≥ 20 µM
same,Kd,HLA-B*08:01 [13],0.00838 µM
MTDAIRTLK,Kd,HLA-A*03:01 [10]; [27],0.134 µM
same,Kd,HLA-B*15:01 [14],≥ 20 µM
same,Kd,HLA-A*31:01 [8]; [27],2.31 µM
PHDPDFLVL,Kd,HLA-B*39:01 [9]; source organism: Mycolicibacterium gilvum PYR-GCK,6.76 µM
same,Kd,HLA-A*69:01; [28],≥ 20 µM
same,Kd,HLA-B*48:01; [28],≥ 20 µM
same,Kd,HLA-B*58:01; [28],≥ 20 µM
same,Kd,HLA-A*01:01; [28],≥ 20 µM
same,Kd,HLA-A*02:01 [4]; [28],≥ 20 µM
same,Kd,HLA-A*29:02; [28],≥ 20 µM
same,Kd,HLA-A*03:01 [5]; [28],≥ 20 µM
same,Kd,HLA-B*27:05; [28],≥ 20 µM
same,Kd,HLA-B*15:01 [6]; [28],≥ 20 µM
same,Kd,HLA-B*46:01; [28],≥ 20 µM
same,Kd,HLA-B*44:02; [28],≥ 20 µM
same,Kd,HLA-B*40:01; [28],≥ 20 µM
same,Kd,HLA-B*18:01; [28],≥ 20 µM
same,Kd,HLA-A*31:01 [15]; [28],≥ 20 µM
same,Kd,HLA-B*57:01; [28],≥ 20 µM
PLSRLFYPK,Kd,HLA-A*11:01; [29],0.129 µM
same,Kd,HLA-A*03:01 [5]; [29],0.649 µM
same,Kd,HLA-A*31:01 [8]; [29],0.0748 µM
RPSSSQIPS,IC50,HLA-B*07:02 [12]; source organism: Sudan ebolavirus,10.9 µM
RTRREAIVN,IC50,HLA-A*02:01 [16],≥ 119 µM
same,IC50,HLA-B*07:02 [12]; [26],≥ 92.6 µM
SHGIDVTDL,Kd,HLA-B*39:01 [9]; [30],≥ 20 µM
same,Kd,HLA-A*69:01; [30],≥ 20 µM
same,Kd,HLA-A*11:01; [30],≥ 20 µM
same,Kd,HLA-B*48:01; [30],≥ 20 µM
same,Kd,HLA-B*58:01; [30],≥ 20 µM
same,Kd,HLA-A*01:01; [30],≥ 20 µM
same,Kd,HLA-A*02:01 [4]; [30],≥ 20 µM
same,Kd,HLA-A*29:02; [30],≥ 20 µM
same,Kd,HLA-A*03:01 [5]; [30],≥ 20 µM
same,Kd,HLA-B*27:05; [30],≥ 20 µM
same,Kd,HLA-B*15:01 [6]; [30],≥ 20 µM
same,Kd,HLA-B*46:01; [30],≥ 20 µM
same,Kd,HLA-B*15:09; [30],≥ 20 µM
same,Kd,HLA-B*44:02; [30],≥ 20 µM
same,Kd,HLA-B*07:02 [2]; [30],≥ 20 µM
same,Kd,HLA-B*40:01; [30],≥ 20 µM
same,Kd,HLA-B*18:01; [30],≥ 20 µM
same,Kd,HLA-A*31:01 [15]; [30],≥ 20 µM
same,Kd,HLA-B*57:01; [30],≥ 20 µM
TVDSLSPLK,Kd,HLA-A*11:01; [20],0.0123 µM
same,Kd,HLA-A*03:01 [5]; [20],0.364 µM
same,Kd,HLA-A*31:01 [8]; [20],≥ 20 µM
VATAHGSTL,IC50,HLA-A*24:02,12.7 µM
same,IC50,HLA-A*02:01 [16],≥ 136 µM
same,IC50,HLA-B*07:02 [12]; [26],≥ 70.5 µM
YLQAKSQVL,Kd,HLA-A*69:01; [31],≥ 20 µM
same,Kd,HLA-A*11:01; [31],≥ 20 µM
same,Kd,HLA-B*58:01; [31],≥ 20 µM
same,Kd,HLA-A*01:01; [31],≥ 20 µM
same,Kd,HLA-A*29:02; [31],≥ 20 µM
same,Kd,HLA-A*68:02,≥ 20 µM
same,Kd,HLA-A*03:01 [5]; [31],≥ 20 µM
same,Kd,HLA-B*27:05; [31],≥ 20 µM
same,Kd,HLA-B*46:01; [31],≥ 20 µM
same,Kd,HLA-B*40:01; [31],≥ 20 µM
same,Kd,HLA-B*18:01; [31],≥ 20 µM
same,Kd,HLA-B*08:01 [17],0.471 µM
same,Kd,HLA-A*24:03,≥ 20 µM
same,Kd,HLA-A*31:01 [15]; [31],≥ 20 µM
same,Kd,HLA-B*57:01; [31],≥ 20 µM
same,Kd,HLA-B*51:01 [18],≥ 20 µM
same,Kd,HLA-A*26:01,≥ 20 µM
same,Kd,HLA-B*27:03,≥ 20 µM
same,Kd,HLA-B*15:17 [19],≥ 20 µM
YRYEFNNDW,Kd,HLA-B*15:09; source organism: Yersinia pestis CA88-4125,≥ 20 µM
same,Kd,HLA-B*39:01 [3]; source organism: Yersinia pseudotuberculosis IP 31758,0.996 µM
